According to article PMC7118906 (2020):

Target: GPI (Homo sapiens, UniProt P06744)
Assay: MST

B1: GPD2 (protein)
chain: ADCISEPVNREPPSREAQLLTLQNTSEFDILVIGGGATGSGCALDAVTRGLKTALVERDDFSSGTSSRSTKLIHGGVRYLQKAIMKLDIEQYRMVKEALHERANLLEIAPHLSAPLPIMLPVYKWWQLPYYWVGIKLYDLVAGSNCLKSSYVLSKSRALEHFPMLQKDKLVGAIVYYDGQHNDARMNLAIALTAARYGAATANYMEVVSLLKKTDPQTGKVRVSGARCKDVLTGQEFDVRAKCVINATGPFTDSVRKMDDKDAAAICQPSAGVHIVMPGYYSPESMGLLDPATSDGRVIFFLPWQKMTIAGTTDTPTDVTHHPIPSEEDINFILNEVRNYLSCDVEVRRGDVLAAWSGIRPLVTDPKSADTQSISRNHVVDISESGLITIAGGKWTTYRSMAEDTINAAVKTHNLKAGPSRTVGLFLQGGKDWSPTLYIRLVQDYGLESEVAQHLAATYGDKAFEVAKMASVTGKRWPIVGVRLVSEFPYIEAEVKYGIKEYACTAVDMISRRTRLAFLNVQAAEEALPRIVELMGRELNWDDYKKQEQLETARKFLYYEMGYKSRSEQLTDRSEISLLPSDIDRYKKRFHKFDADQKGFITIVDVQRVLESINVQMDENTLHEILNEVDLNKNGQVELNEFLQLMSAIQKGRVSGSRLAILMKTAEENLDRRVPIPVDRSCGGL
For B1, the Kd was 8.59 nM.
